Assay [1] deals with T1, SARS-CoV-2 S蛋白的RBD蛋白 (SARS-CoV-2, UniProt P0DTC2 319-541).
T1 construct: domain: RBD
As to the kind of experiment: ELISA, RBD coated at 2 μg/mL, 1F as human IgG1. Background: An ELISA detects its analyte on a solid surface through an enzyme-linked reagent.

Assay [2] deals with T1, SARS-CoV-2 S蛋白的RBD蛋白. As to the kind of experiment: SPR, Biacore T200, RBD immobilised on CM5 chip, antibody in solution, 1:1 model. (In general: Surface plasmon resonance follows binding to a sensor surface in real time, without labels.)
Another assay concerns the target 生物素化RBD (SARS-CoV-2, UniProt P0DTC2 319-541).
The target of the next assay is SARS-CoV-2 S蛋白 (野生型) (SARS-CoV-2, UniProt P0DTC2 14-1273). As to the kind of experiment: cell-based or functional assay.

One molecule from CN112390879A (UNIV SHANGHAI TECHNOLOGY, dated 2021) can be followed below.

B1: 抗体1F (antibody, V domains shown)
VH: EVQLVESGPGLVKPSETLSLTCTVSGGSISSSSYYWGWIRQPPGKGLEWIGSIYYRGSTYYNPSLKSRVTISVDTSKNQFSLKLSSVTAADTAVYYCARHVRSAYYYGSGSYRDEGNWFDPWGQGTLVTVSS
VL: QSVLTQPPSVSGAPGQRVTISCTGTRSNIGAGHDVHWYQQLPGTAPKLLIYGNNNRPSGVPDRFSGAKSGTSASLAITGLQAEDEADYYCQSYDRTLTSYVFGTGTKVTVL
By EC50 is commonly meant the concentration needed to bring the measured effect to its halfway point. Read a low EC50 as a more potent agent. In general, Kd refers to the concentration at which binding is half-saturated. Lower therefore signals a tighter complex. The term IC50 denotes the concentration that gives 50% inhibition. Molecule B1 came in with a 50% effective concentration (EC50) with SARS-CoV-2 S蛋白的RBD蛋白 [1] of 0.0016 µg/mL. In the assay with SARS-CoV-2 S蛋白的RBD蛋白 [2], this molecule yielded a Kd of 0.077 nM. The same molecule came in with an IC50 with 生物素化RBD of 0.213 µg/mL. Besides, in the assay with SARS-CoV-2 S蛋白 (野生型), the “中和SARS-CoV-2活病毒 (Vero-E6细胞, RT-PCR) IC50” value stood at 0.018 µg/mL and the “中和野生型SARS-CoV-2假病毒 (293T-ACE2细胞, 荧光素酶) IC50” value stood at 0.0464 µg/mL.
